Measurements from the domain aggregation screens of Martell et al. (2025).

Test: soluble fraction after stress (log2 fold change); higher = more stays soluble; pooled small domains, quantitative proteomics
Conditions: stress: 50 degC
Outline: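 After stress at 50°C, the amount of each protein still soluble was measured. This was done on pooled custom libraries of small protein domains, using high-throughput quantitative proteomics. The figure given is a base-two log fold change and stands for aggregation propensity, with higher values meaning more protein stays in solution.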

Sequence	soluble fraction (log2)
HMSQLSQIVDAFGGLRPFARALNKPPSTVQYWIEKGGIPASVVSPIMKLSEEKGLGLSRDQVSAAVS	0.157
HMPLLSPRQLDVLSLAAGGLSDAQIAGRLVLSESTVRVHFHHIIEKLGVTDRAGAIAWYEQSRS	-1.03
HMGRKPATTIPLQVRNAVLDLYRTKYYGANFQHYTELLHEHEGIRISTSSVAKILEAEYILSPK	-1.69
HMETNFTGTRIATARKAKNMSQAQLAQQLFISPQAVGKWERGESIPDIVTVVKLADVLGVDLNYFSE	-0.12
HMSGLEDIKKKILEDAGIKKGSVKFVKVDKDYDDGIWKYEIDFVYDGKEYEYEIEVETGKILSRKTEKSD	-0.317
HMAAMDMFVKLDALDAELTEQLKALPAEPDDARVERGLALLTDYDHRIKALLTEIFGGENDFDKVL	-2.4
HMTNIDRLIGQTAIVKETINNKKEQGVVRINGMDWTARTEEIDEVILKGKPVEILDIQGIKLIVRKK	-0.153
HMVYNQYILTQSVRLREEPGISGRVIRLLETGTTVELVDTVVVNKDDYDWVWVKLSDGAVGWIIKSAIDI	-0.529
HMIETIQVPRAFNDWHEQADKTKSVFEVYAEIEASENEKLIAWVRNNQNEFAKIWLGALIPELE	-1.39
HMSSPVGIAQATTYVYVRAGHSMQAAKVGVLSPGEKVGVTGRSAQGFSEVVYNGVHRWVGSRYLSPT	-1.4
HMHRIKRRNDTLVSALDSIAGIGAKRKKALLQHFGSVRAIKAVSAEEIAKVEGISPTLANQIFEAL	-0.605
HMSFPQVELNTNKGRIVLELNSEKAPKTVANFLEYVRDGFYDGVIFHRVIDGFMIQGGGFDENFKEKA	-0.229
HMETTVPNVLNHNISTGEILLKENNLNFRIQYIPSNKDEAVGTIINSVPTSGEKVKFGTVVDLKVL	0.0465
HMRKLHFVMSEIYEDHPWIGSKLQDVFLPKDIRVVLVERDSKQFMPNGQTLFELGDRLTLSALHYDPA	-3.02
HMDAEKHIVTPEAGLRLDRALTDALPNLSRSRVKQLINEGLVTTENKTITAPSYRVKYGDSFEISIPPPT	-0.0636
HMVNEALDEFFVGLKNLYESATGKPAIAGAHFDGEPKTDFEKLMYLGYQIIRPAQAYPSALKAYERAIARS	-0.173
HMGVMNEYEELRDRYLTGQIWKIGDLVEAKGIEGKIIQRGTNYITFNDSQGKVHKAWLHEIKV	0.184
HMITPAARLRALKIRLSVDEVAQIVQRLVNGETVYQIGKPDTGGHAKATVGKINALRLAGQLHFL	-1.28
HMPLNAFDVAGYRLGYGGGYFDRTLAALSPRPLAVGVGFEINRLESIRPEAHDQRLDWIVTENGAFRPA	-0.867
HMRPLTPLEKLTPDADGKYYHIVQSGETLSWIAKLYETTAEKLQAWNNLFSSDIFPNQKLLLQVTPP	0.0722
HMTKYEKKIFEIVNASRDHLTAEQVLAALREEYPAVSQATVYNNLKKLTSDGLLRKLTLADSPDRYD	-0.208
HMSGIGTTIKMLRENKNISQEELGNVLGVSDKTISSWEINRTEPKMGIVQLLADYFGVSTDYLIKG	-0.146
HMDPEQLKIAINTKMPFGKYSGRPLLLLPEPYLVWFKQQGFPDSKLGSQLAMMYEVKLNGLEQMLMPLL	-0.673

Sequence	soluble fraction (log2)
HMGFSDDEHNALADADLKKALEVTTNKSETQYNIAKLIYSYIISLGDKKPYGDWSYDKALSIIHDA	0.0519
HMRKIVEGVLTKKEGKWYLLTDIETYKISDASAEYHKAELNDRASALIPAQNPKVPFASLEKVFN	-0.219
HMKPLRPVHLEIQTHRLSPVGILRSSFRQAGKVMHSNHGRITGLNLEQLKLIQAAFAGEALPK	-0.0219
HMVYLPSSIKNIPTKYGEMMVANFKMDELQANSKNGWVSMVISERREPSEKGATHYAYVNTY	0.432
HMETYPINVETTGTNVLLRTGPSTSSNIIKTITDKGTVFLSIERGINSDWQKVVTPDGTIGYMSGKY	0.000612
HMQAGNAVEQYPTIGRLEEVTLGRSQPGAPIGERLSTLETVVFKRNFNDDSLFDRTERLKKTILGG	0.0575
HMPVGSIGERLKALRLKAGLTQEEVGQHVHISKQTLYKYENGIVTNIPADKIELLATIYSVTPAYIMGWA	-0.875
HMSDKNVYGKYKNVFLSDEEFSELKQFYPNDWSDRIETLSEGIELKGYKYKNYLLAIKKWAEYEGQKAD	-0.0354
HMSKLQETEIPVALEVEKIPGLSNELKQKLLKIKPQTIGQASRISGITPAAISILMIYIKKNESISAVK	-1.57
HMHEIVDTVLQVKQSVEADPLIAPALKNKEIVFQLNAKGVFQFKNAVIQVASALGISKNTVYMHLRNNK	-1.89
HMETYEFNITDKEQTGMRVDKLLPELNSDWSRNQIQDWIKAGLVVANDKVVKSNYKVKLNDHIVVTEKEV	0.26
HMFRSTLEELKHQISGFLKANQSQEFTAQNLADGLRMTSIAEYKRVVNAMDALVRDGELTFDAGKYQYNPN	-0.279
HMYYIITNGKYWVIENPIRPGEYMESTKSSNAKQFTFKQAKNLLNARSKKLGWIRNGYSMVGED	-2.22
HMFQLSNEAKQQVLGELKRYESKQSAVLPALYIGQKDNKGHITPEVIRELSKVMDIPESQINEVFTFYTM	-0.119
HMSKPTLTLKSNAYPYNLNGERINNYLGFTYIKKGATLNYQGSKRINGQNYYYIGDGAYIKNTTVGSTNN	-1.51
HMNDENIIIEEIKYFIKSNQIKEQEKLPSERNLSELFTVSRFSLRKALRHLVDTGYLYVKDKSGYYYQGD	-2.47
HMRTVAERYGLTAGQWRVLELLTQGKTNRQIAEMLDVTEGTVKIHVSAIFKAMKVTNRTQALLLAKKH	-0.558
HMFEERKKDWNLTGLLDDVIRRYIHQLTNDELNEINLEKSSGMPDEEIKNGIKLPLAVMQQRRETWGS	-0.16
HMTTGEIIQRERTRLGLSQEKLAEQVGVSRQAVSKWELGDAVPDTDKLVPLARTLGISVDTLLD	0.0247
HMRASVTYVVQVNGKLRGKLEVAPDIDPEELKKLALEVENVKHSLQGWTVKKVIVIPGKMVSIAAGK	0.0764
HMDNLSESQIKAYSSILSRTHEISDLAENKDYLAFSLWIANILRDPQSVREETAKRVFSALHTNTDFK	-0.945
HMGQKASEVEKIFVELQQQIIRGDLPPGYRLVESQIAAQFGVSRTPARLAIERLATAGLVAHETNRGATVH	-0.42
HMEGIWAVFYDGKPINLKSSSLVANYPGPKYKKVSFSNPGHAENLAKKLNAQHNTDKFGVYLLKSGDKFS	-0.00158

Sequence	soluble fraction (log2)
HMGEGIRIDSTAVVQVGEKMYAYLGGDGFSKEFWTNLPASGELAVTLKFEPIPMDAESLDFYEMPA	0.0315
HMASIGTATVTADNLRLRSEAGTGAETLTMAPKGAEVTVEEDAGDGWYKVTYGDTEGYMSGEWLKITLA	-0.209
HMQKFINQEHEKAYNLMLEKDYQQALKIFDDLIYLFPNEANLLSDRGVIFIHLNKKEAALQDFDQAVF	-2
HMDTLESYVKRLEKLEGIADSFKGVSKAFALQAGREIRIMVESEKITDEEAVWLSKDIARRIENELEYPG	-0.378
HMKHKHHIIPKHKGGTDHPDNLIELTVEQHAKAHWVEFMLDGREEDYWAWKGLEGVASKKDIIYALSKR	0.351
HMDIDGVSENGRLILAALDKEALDFDTLAAETGIQESRLRTELTLLEIRKLIMKLPGQRYRLI	0.0016
HMSLLQDRQRHEALAALGYYRGSVSAAWGAASVEALKAAQAALGVEVDGKWGPKTEDVIQAALGT	-0.00704
HMAIIQSNNIFKSQKEIVDEILVELDIPKDKWNFFHMLISSGYKDEFDTNRIYEIIQTNYNMMDR	-0.205
HMNQRTATVTASQLNVRSGPSTAYSIVHVLRQGETVEVIGESDGWYQIRLKDGRVGWSSGQYLNLN	0.0784
HMFTEEEMTKLRHELILAGIRLSRELGLQRMSVEKITSAVGIAKGSFYIFFDSKEDFILEIADHANRE	-1.06
HMSLRVIEIFGTPQQMSARISLMDGSVTDVKVGQSIPGTSYKVASITGNGVWIQNGTAVSYTHL	-1.3
HMPKELAPYDILARYYLTVNNSKQSIALLEQYLDKAGSAPAALKAKLLLAGILYPSGNKERAEKLVEEVIK	-0.465
HMARDPWDVLGVAKTATNDEIKRAFKRQAMMTHPDKQGGSEERFKEVNEAYSHIKDEQSRAKYQNSQ	0.238
HMVTDTGAIEKVIDEVIAANPKQVQEIADQRAAGHEKPKTLGWLVGQIMKASGGKVNPAAVNEILLKKLG	0.149
HMASGLITEEQAKSKALAHAGLSASQVNFIWVKQDWEDGRRVYEVEFYTDDYQEYDYEIDARTGEILSFDY	-1.97
HMQLPTNAAAILRYLSSGAVKGVGSATAVRIVEKFGEETLNILEQDPLRLAEIRGISRDKAKKIGEDFASQ	-0.201
HMYELDIYPNPAIDKINVLLPSSTTLPVKVEIYDIMGKKVNSLLTTKKAFTIETDQFEKGIYFVKA	0.0213
HMEVVVPEDLDAALQQASRAQSFFSSLSYTHKKEYVAWINEAKRAETRAMRIQKTITMLESGQRGH	-1.14
HMGVGERIKARRKEIGLSAEQVAKELGVSPATVYRYESNDIMNMRIDKLEPIAKALHTTPAYLMGWE	-0.0318
HMSVSTGTITGSVVNLREEPNTSSKVLDKLPKDTVVYVLSASGEWYNVSYGDKTGWVYGEYLA	-0.163
HMRDAKSQLQEALQKSGRLPEYELVSVEGPPHAPVFTYRVRIDGAVVGEGQGASKQAAQQAAAQSALKSG	0.145
HMPYSKIALQISHLLKSHGVPLSNKQIYEKLINDFQLSINYSNLTNNILPRMNSDSSINVEKVTRGYWQY	-0.634
HMEVAVQFIEFKIPENHAWIGKEIREITFPPESILVLIIRDGKKLVPNGKTVLKEGDSLILSGKASD	-0.538
